Measurements: publication PMC2780661

Tests used:
[1] = target: Complex III2 from potato (potato)
[2] = target: ATP synthase from mitochondria of Zea mays (Z. mays (endogenous in mitochondria)); assay: single particle electron microscopy

Work on Complex I from potato yielded a stoichiometry N [1] of 2.

In the case of “ATP synthase from mitochondria of Zea mays (complex)”, the stoichiometry N [2] was 2.
